{"source": "the DeepSol protein solubility set", "data": [{"test": "soluble on expression in E. coli; label from the status in PepcDB or PDB records", "values": [{"sequence": "MGSDKIHHHHHHMFDPESLKKLAIEIVKKSIEAVFPDRAVKETLPKLNLDRVILVAVGKAAWRMAKAAYEVLGKKIRKGVVVTKYGHSEGPIDDFEIYEAGHPVPDENTIKTTRRVLELVDQLNENDTVLFLLSGGGSSLFELPLEGVSLEEIQKLTSALLKSGASIEEINTVRKHLSQVKGGRFAERVFPAKVVALVLSDVLGDRLDVIASGPAWPDSSTSEDALKVLEKYGIETSESVKRAILQETPKHLSNVEIHLIGNVQKVCDEAKSLAKEKGFNAEIITTSLDCEAREAGRFIASIMKEVKFKDRPLKKPAALIFGGETVVHVKGNGIGGRNQELALSAAIALEGIEGVILCSAGTDGTDGPTDAAGGIVDGSTAKTLKAMGEDPYQYLKNNDSYNALKKSGALLITGPTGTNVNDLIIGLIV", "soluble on expression in E. coli": "soluble"}, {"sequence": "MFQKVDAYAGDPILTLMERFKEDPRSDKVNLSIGLYYNEDGIIPQLQAVAEAEARLNAQPHGASLYLPMEGLNCYRHAIAPLLFGADHPVLKQQRVATIQTLGGSGALKVGADFLKRYFPESGVWVSDPTWENHVAIFAGAGFEVSTYPWYDEATNGVRFNDLLATLKTLQAGSIVLLHPCCHNPTGADLTNDQWDAVIEILKARELIPFLDIAYQGFGAGMEEDAYAIRAIASAGLPALVSNSFSKIFSLYGERVGGLSVMCEDAEAAGRVLGQLKATVRRNYSSPPNFGAQVVAAVLNDEALKASWLKEVEEMRTRILAMRQELVKVLSTEMPERNFDYLLNQRGMFSYTGLSAAQVDRLREEFGVYLIASGRMCVAGLNTANVQRVAKAFAAVM", "soluble on expression in E. coli": "soluble"}, {"sequence": "MFKKLSVLALAMIISLSITACNSKENKANDESNTKVTTADDSKEKETLFVYSGAGLKKPMDEIAKKFEKENNVKVEYSYAGSAQLIAQIETSHKGDVFIVGSEPIYSKAFEKELVGEHKTVAHHTPAIVVPKGNPANIQKLEDLNKDGVKLILGDKESNAIGKTTQKILEKNNLKSINDNVVSTAATVNEMIVQLTSSKADATIATKDSVFGNEDVEVIEIAQDKNIDQLISAGIVNYSDKKDLANKFINYIESDEAKQIFKKYGFEPVK", "soluble on expression in E. coli": "not soluble"}, {"sequence": "MEVEVGQIVNTHGIKGEVKVKSNSDFTETRFQPGEQLLVKHNNTEIVYTVASYRIHKGFHMLRFEGINNINEIEHLKGDYIYQERDHQDIELGEHEYYYSDIIGCTVFKDDDTPIGRVINIFETGANDVWVVKGEKEYLIPYIEDVVKDIDIETKTIKITPMEGLLDLEHHHHHH", "soluble on expression in E. coli": "soluble"}, {"sequence": "MGSDKIHHHHHHMTEQNRDLVLVTGASGFVGSSVARIAQQKGFKVRVLVRATSPRQNVESLDAEIVVGDMRDEASMRNALRGVRYLLHVAADYRLWAPDPSEIERSNLEGTEATMRAALKEGVERIVYTSSVATLKVTSSGQSADETSPLKADQAIGVYKRSKVLAERAVERMIAEDNLPAVIVNPSTPIGPRDVKPTPTGRIIVEAALGKIPAFVDTGLNLVHVDDVAAGHFLALERGKIGERYILGGENLPLQQMLADIAALTGRKAPTLSLPRWPLYPLAMGAEAIAKITKREPFVTVDGLKMSKNKMYFTSAKAERELGYRARPYREGLGDALEWFRQAGYLKA", "soluble on expression in E. coli": "not soluble"}, {"sequence": "GMDVTIERVNDFDGYNWLPLLAKSSQEGFQLVERMLRNRREESFQEDGEAMFVALSTTNQVLACGGYMKQSGQARTGRIRHVYVLPEARSHGIGTALLEKIMSEAFLTYDRLVLYSEQADPFYQGLGFQLVSGEKITHTLDKTAFADSNR", "soluble on expression in E. coli": "soluble"}, {"sequence": "MNIIILAGGEGKRMGGVDKAAVAVDGRTLLDILLSQLDPEDDVVVVSPAIIDGITTVCEEPPLGGPVAGIEAGLNSFEHAHEFTAILAVDAPYSAAMLPLLQAQIGKADVAVTLAADGWVQPLCALWRSGSLEAVIHSLGETRNRPAKALLKQAGHIVEVGGDGTEKDYDTVAELEVLGNVTLPKAHLEHHHHHH", "soluble on expression in E. coli": "not soluble"}, {"sequence": "MPVAEQPYHHGSLRRVLLARAESTLEKDGVDGLSLRQLAREAGVSHAAPSKHFRDRQALLDALAESGFLRLTAALERAVEEAESHARARFAALAGAYVSFALAHRELLALMYGNKHAPGAASQVVEAGHASMDLTVRIVTEAQAAGDIGPGDASRIALVAFATFHGIATLAAGGMLDGAPVDEVVTAASDTFWRGLAQA", "soluble on expression in E. coli": "soluble"}, {"sequence": "MGSDKIHHHHHHAQDKKKEFKMPTGYAGITHEMSEFYEPVPPVVTPGTDLKGGGFTAPSDAIVLFDGKDLSAWESVKGGAAEWDVHDGVFTVNKKKGDIQTKQKFNDFQMHIEWQVPTNITGESQSRGNSGIFLQGMYEVQVLDCYNNPTYVNGQTGSIYKQSIPLANAMRKPGEWNVYDIIYTAPTFKEDGSYRTHPTVTVIQNGVVLQNHTTILGTTEWIGFPQVKKHGAGPIILQSHGDPSEPISFRNIWIREL", "soluble on expression in E. coli": "not soluble"}]}]}
